Experimental data reported in PMC10397247.
Each block holds one binder with its values, some of them ahead of it.

Experiments:
[1] = target: T1, 4H688-AA; assay: two-hybrid library CCmax;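 further: natural log of median RNA to DNA barcode read ratio; higher means stronger binding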
T1 chain: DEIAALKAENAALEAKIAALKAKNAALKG

[2] = target: T2, 4H963-AA; assay: two-hybrid library CCmax; details: mean of both orientations;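 further: natural log of median RNA to DNA barcode read ratio; higher means stronger binding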
T2 chain: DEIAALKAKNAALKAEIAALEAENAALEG

[3] = target: T3, 4H3297-bN; assay: two-hybrid library CCNG1;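 further: natural log of median RNA to DNA barcode read ratio; higher means stronger binding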
T3 chain: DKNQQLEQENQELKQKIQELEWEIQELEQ

[4] = target: T4, 4H3364-bN; assay: two-hybrid library CCNG1;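 further: natural log of median RNA to DNA barcode read ratio; higher means stronger binding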
T4 chain: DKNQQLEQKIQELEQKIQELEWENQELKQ

[5] = target: T5, 4H3381-bN; assay: two-hybrid library CCNG1
T5 chain: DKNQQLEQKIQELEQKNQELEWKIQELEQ

[6] = target: T6, 4H349-bN; assay: two-hybrid library CCNG1
T6 chain: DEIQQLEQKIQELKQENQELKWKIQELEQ

[7] = target: T7, 4H56-bN; assay: two-hybrid library CCNG1
T7 chain: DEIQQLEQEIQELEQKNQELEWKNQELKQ

[8] = target: T8, 4H730-bN; assay: two-hybrid library CCNG1
T8 chain: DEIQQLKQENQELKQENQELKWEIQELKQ

[9] = target: T9, 4H796-bN; assay: two-hybrid library CCNG1
T9 chain: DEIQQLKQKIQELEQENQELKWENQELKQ

[10] = target: T10, 4H932-bN; assay: two-hybrid library CCNG1
T10 chain: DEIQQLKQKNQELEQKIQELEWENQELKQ

[11] = target: T11, 4H949-bN; assay: two-hybrid library CCNG1
T11 chain: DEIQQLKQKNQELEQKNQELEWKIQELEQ

[12] = target: T12, 4H591-bH; assay: two-hybrid library CCNG1
T12 chain: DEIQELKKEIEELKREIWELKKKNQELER

[13] = target: T13, 4H626-bH; assay: two-hybrid library CCNG1
T13 chain: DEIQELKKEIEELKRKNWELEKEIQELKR

[14] = target: T14, 4H906-bH; assay: two-hybrid library CCNG1
T14 chain: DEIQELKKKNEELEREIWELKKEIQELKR

interaction score [1]: -1.23
interaction score [2]: 1.46
B1: 4H688-AA (peptide)
chain: DEIAALKAENAALEAKIAALKAKNAALKG

interaction score [3]: -0.0469
interaction score [4]: -0.913
interaction score [5]: -1.01
interaction score [6]: -2.11
interaction score [7]: -0.798
interaction score [8]: -0.799
interaction score [9]: -0.556
interaction score [10]: -1.21
interaction score [11]: -1.29
B2: 4H3297-bN (peptide)
chain: DKNQQLEQENQELKQKIQELEWEIQELEQ

interaction score [12]: 1.58
interaction score [13]: -0.53
interaction score [14]: -0.784
B3: 4H591-bH (peptide)
chain: DEIQELKKEIEELKREIWELKKKNQELER
